Target: Deinococcus radiodurans RNase J, wild type, full-length (residues 1-559) (Deinococcus radiodurans)
Experiment: SEC

- stoichiometry N: 2
Substance: Deinococcus radiodurans RNase J, wild type, full-length (residues 1-559) (enzyme)

From article PMC4477667
